Experimental data as given in publication PMC12132378 (bioRxiv, 2025).

Target: Ub-Lys-TAMRA (UniProt P0CG48 1-76, Ub is isopeptide-linked to a TAMRA-labeled Lys-Gly dipeptide (modification at the Ub C-terminus))
Experiment: fluorescence polarisation

- Kd: ~20 µM
B1: RNF114 (wild type, full length) (enzyme)
chain: MAAQQRDCGGAAQLAGPAAEADPLGRFTCPVCLEVYEKPVQVPCGHVFCSACLQECLKPKKPVCGVCRSALAPGVRAVELERQIESTETSCHGCRKNFFLSKIRSHVATCSKYQNYIMEGVKATIKDASLQPRNVPNRYTFPCPYCPEKNFDQEGLVEHCKLFHSTDTKSVVCPICASMPWGDPNYRSANFREHIQRRHRFSYDTFVDYDVDEEDMMNQVLQRSIIDQ
